Results from patent US20120204273A1, “COMPOSITIONS RELATING TO A PHOSPHOPROTEIN AND METHODS OF USE” (SANFORD-BURNHAM MEDICAL RESEARCH INSTITUTE, priority 2010, published 2012).
Substitutions are numbered along the chain they refer to. Names may count otherwise.

B1: HA-CDP138-5DA: HA-tagged CDP138 with D19A, D26A, D76A, D78A, D84A (protein, UniProt Q86YS7 1-1000, looked up, variant D19A D26A D76A D78A D84A)
C2 domain-containing protein 5: MPGKLKVKIVAGRHLPVMARASDLTAAFVEVKFGNTTFKTDVYLKSLNPQWNSEWFKFEVDDEDLQDEPLQITVLAHATYSANAAIGKVYIDIDPLLYSEAATVISGWFPIYDTIHGIRGEINVVVKVDLFNDLNRFRQSSCGVKFFCTTSIPKCYRAVIIHGFVEELVVNEDPEYQWIDRIRTPRASNEARQRLISLMSGELQRKIGLKVLEMRGNAVVGYLQCFDLEGESGLVVRAIGTACTLDKLSSPAAFLPACNSPSKEMKEIPFNEDPNPNTHSSGPSTPLKNQTYSFSPSKSYSRQSSSSDTDLSLTPKTGMGSGSAGKEGGPFKALLRQQTQSALEQREFPFFTLTAFPPGFLVHVGGVVSARSVKLLDRIHNPDEPETRDAWWAEIRQEIKSHAKALGCHAVVGYSESTSICEEVCILSASGTAAVLNPRFLQDGTVEGCLEQRLEENLPTRCGFCHIPYDELNMPFPAHLTYCYNCRKQKVPDVLFTTIDLPTDATVIGKGCLIQARLCRLKKKAQAEANATAISNLLPFMEYEVHTQLMNKLKLKGMNALFGLRIQITVGENMLMGLASATGVYLAALPTPGGIQIAGKTPNDGSYEQHISHMQKKINDTIAKNKELYEINPPEISEEIIGSPIPEPRQRSRLLRSQSESSDEVTELDLSHGKKDAFVLEIDDTDAMEDVHSLLTDVPPPSGFYSCNTEIMPGINNWTSEIQMFTSVRVIRLSSLNLTNQALNKNFNDLCENLLKSLYFKLRSMIPCCLCHVNFTVSLPEDELIQVTVTAVAITFDKNQALQTTKTPVEKSLQRASTDNEELLQFPLELCSDSLPSHPFPPAKAMTVEKASPVGDGNFRNRSAPPCANSTVGVVKMTPLSFIPGAKITKYLGIINMFFIRETTSLREEGGVSGFLHAFIAEVFAMVRAHVAALGGNAVVSYIMKQCVFMENPNKNQAQCLINVSGDAVVFVRESDLEVVSSQQPTTNCQSSCTEGEVTT
modifications: HA tag
notes: HA-tagged CDP138 with D19A, D26A, D76A, D78A, D84A
B2: HA-CDP138-S197A: HA-tagged CDP138 mutant lacking the Akt2 phosphorylation site Ser197 (protein, UniProt Q86YS7 1-1000, looked up, variant S197A)
C2 domain-containing protein 5: B1 C2 domain-containing protein 5 with A19D, A26D, A76D, A78D, A84D, S197A
modifications: HA tag
notes: HA-tagged CDP138 mutant lacking the Akt2 phosphorylation site Ser197

System: 3T3-L1 adipocytes
Assay: myc-GLUT4-GFP translocation to the cell surface
Type: cell-based, mouse
Details: insulin 100 nM, 30 min
Method: FIG. 2, panels A-C show knockdown of CDP138 in 3T3-L1 adipocytes inhibits insulin-stimulated glucose transport (A) and myc-GLUT4-GFP translocation (B), but not endogenous GLUT4 movement to the periphery detected in TIRF zone (C). (A): Differentiated adipocytes at day 5 were transfected with siRNAs against mouse 5730419I09Rik or the scrambled siRNA (Scr) as described earlier (Jiang et al., 2003) for 60 hrs, then serum starved overnight. Cells were then treated with or without insulin (1 nM and 100 nM) for 30 min for the glucose uptake assay, or 15 min for immunoblotting of CDP138, pAkt, Akt and β-actin. Glucose transport data are presented as mean±SD of 4 independent experiments. *P<0.05 vs Scr Insulin (1 nM) group; **P<0.01 vs Scr Insulin (100 nM) group. (B): Day 5 adipocytes were transfected with siRNAs and myc-GLUT4-GFP for 60 hrs and then serum starved overnight. Cells were then treated with insulin (1 nM) for 20 min. Cell surface Myc-GLUT4-GFP was detected with anti-myc monoclonal Ab (9E10) and Alexa Fluor 568-labeled goat anti-mouse IgG in non-permeablized cells. The Myc signal and GFP signal were quantified as previously described (Jiang et al., 2002). Data presented are representative microscopic images and mean±SD of about 160 GFP-positive cells in each group from three independent experiments. **P<0.01 vs Scr Insulin (1 nM) group. […] GLUT4 was detected with a goat anti-GLUT4 Ab and Alexa Fluor 488-conjugated donkey anti-goat Ab in permeabilized cells. Top and middle panels show 100 nm TIRF zone and representative GLUT4 TIRFM images, respectively. Data are mean±SD of 3 independent experiments. **P<0.01 vs Scr Insulin groups.
GLUT4 translocation detection with wide field fluorescence and TIRF microscopy: Both wide field and TIRF microscopy were used to detect myc-GLUT4-GFP translocation to the cell surface as previously described (Jiang et al., 2002) and herein.
To test the effect of RNAi-induced gene specific knockdown of CDP138 or overexpression of CDP138 mutants on GLUT4 translocation, siRNAs or CDP138 constructs were transfected into adipocytes together with myc-GLUT4-GFP by electroporation as previously described (Jiang et al, 2003). […] Cells were washed with cold PBS, fixed with 4% formaldehyde and immunostained. Briefly, for siRNA study, the cell surface Myc-GLUT4-GFP was visualized with mouse anti-Myc Ab (9E10) and AlexaFluoro568-labeled goat anti-mouse secondary Ab (Invitrogen) in PBS containing 1% FBS. After washing, the coverslip were mounted with Prolong antifade reagent (Invitrogen, Eugene Oreg.). Fluorescence microscopy was carried as described below. Then, images were acquired with wide field microscopy as described below. For the study with overexpressed HAtagged CDP138 constructs, the cell surface Myc-GLUT4-GFP was visualized with rabbit anti-Myc Ab (Cell signaling, Inc) and AlexaFluoro568-labeled goat anti-rabbit secondary Ab (InVitrogen) in PBS containing 1% FBS. Cells were further permeabilized with PSB containing 0.5% Tween-20, and HA-tagged protein was detected with a mouse anti-HA epitope primary Ab followed by AlexaFluoro-350-labelled goat anti-mouse IgG. Insulin-induced myc-GLUT4 accumulation (AlexaFluoro-568 signal) within the evanescence excitation field (100 nm from dorsal membrane) in transfected adipocytes was measured with a Nikon Eclipse-Ti microscope equipped with a CoolSNAP HQ2 camera and laser scanning TIRF capacity. Total GLUT4-GFP signals and […] Alexa Fluoro-350 signals were acquired with wide field imaging to identify double-transfected cells. The ratio of myc-GLUT4 signal in the TIRF zone to the total Epi-GFP signal in wide field was used as a measure of GLUT4 translocation to the cell surface.
Image Analysis and Quantification: TIRF and wide field fluorescence microscopy were performed using a Nikon inverted microscope (Melville, N.Y.) with a cooled charge-coupled device camera. […]

Molecule	effect of overexpression on insulin-stimulated myc-GLUT4-GFP translocation (TIRF myc / Epi GFP)	effect of overexpression on insulin-stimulated myc-GLUT4-GFP translocation (TIRF myc / Epi GFP) (listed as S197A)
B1	inhibited	
B2	inhibited	blocked
